Measurements taken from the nanobody polyreactivity screen of Harvey et al. (2022).

experiment: yeast display, Sf9 membrane polyspecificity reagent, FACS + sequencing; frameworks hold sequencing errors
How it was run: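 Sorting gates, low and high (top ~1%), were placed on anti-HA fluorescence to track expression and on streptavidin fluorescence to track reagent binding. A clone's polyreactivity label is taken from the gate it came out of. The reagent was 10% biotinylated, detergent-solubilized Sf9 membrane, applied for 1 hour at 4 °C to galactose-induced yeast display cells.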

Sequence | polyreactivity (PSR sort gate)
QVQLVESGGGIVQAGVSLRLSCAASGRTFWTNAMGWYRQAPGKERELVAVISTTTGNTYYADSVKGRFTISRDNAKNTVYLQMNSLKPEDTAVYYCNTRTGAFFLSKPYYYWGQGTQVTVSS | low polyreactivity
QVQLVESGGGIVQAGVSLRLSCAASGSTFESNAMGWYRQAPGKECELVASISGSGGSTFYADSVKGRFTISRDNAKNTVYLHMNSLKPEDTARYYCAAYKEPYYEESGYWGQVTQVTVSS | low polyreactivity
QVQLVESGGGIVQAGVSLRLSCAASGSTFVRYAMGWYRPAPGKERELVAAISGGGSTSYADSVKGRFTISRDNAKNTVYLQMNSLKPEDTAVYYCAAEKYRWENDAYQYYTFDYWGQGTQVTVSS | low polyreactivity
QVQLVESGGGKVQAGGSLRLSCAATGRNFGVYDMGSYRHSPGKERELVAAITARGGSTYYADSVKGRFTISRDNAKNTVYLQMNSLKPEDTAVYYCAASAGSAGHSGGYWGQGTQVTVSS | high polyreactivity
QVQLVESGGGLDQAGASLRLSCPASGRTFNANVMGWYRQAPGKERELVAAISTGGSTNYADSVKGRFTISRDNAKNTVYLQMNSLKPEDTAVYYCAAAIRVPQGGYYYWGQGTQVTVSS | low polyreactivity
QVQLVESGGGLDQAGGRLRLICAASGNTFRFYTLGWYRQAPGQETEFVAAINSSGRTNYADSVKGRFTISRDNATNTVYLQMNSLKPEDTAVYYCAADYYQRSTFLGVDEYDYWGQGTQVTVSS | low polyreactivity
QVQLVESGGGLDQAGGRLRLSCAASGSTFLLYAMGWYRQAPGKERELVAAIDTGDSTNYADSVKGRFTISRDNAKNTVYLQMNSLKREDTAVYYCNADSFPALNKRGYDYWGQGTQVTVSS | low polyreactivity
QVQLVESGGGLDQAGGSIRLSCAASGFIYDGNAMGSYRQAPGKERELVAAISSGGGTTYYADSVKGRFTISRDNAKNTVYLQMNSLKPEDTAVYYCADDALSDEYDYWGQGTQVTVSS | low polyreactivity
QVQLVESGGGLDQAGGSLLLSCAASGSIFRSNAMGWYRQAPRKERELVAAIDYSGTSTTYADSVKGRFSISRDNAKNTVYLQMNSLKPEDTAVYYCNADGYYRGYWSGYEYWGQGTQGTVSS | low polyreactivity
QVQLVESGGGLDQAGGSLLLSCPASGRTFGTYAMGLYRQAPGKERELVASITSGDSTNYADSVKGRFTISRDNAKYTVYLQMNSQKPEDTAVYYCNASGYVMVTPPKLSFNYEYWGQGTQVTVSS | low polyreactivity
QVQLVESGGGLDQAGGSLRLICAASGFIFEYYAMGWYRQAPGKERELVASITSGGTTYYADSVKGRFTISRDNAKNTVYLQMNSLKPEDTAVDYCAAAWRIWWYHRGEFDYWGQGTQVTVSS | high polyreactivity
QVQLVESGGGLDQAGGSLRLICAASGRIFKWYAMGWYRQAPGKERELVATITWSGGSTYYADSVKGRFTISRDNAQNTVYLQMNSLKAEDTAVYYCNADTWLALPCFDYWGQGTQVTVSS | high polyreactivity
QVQLVESGGGLDQAGGSLRLRCAPSGRIFSYVMGWYRQAPGKERELVAAISGGVRTYYADSVKGRFTISRDNAKNTVYLQMNSLKPEDTAVYYCNADWYRKRNYWGQGTQVTVSS | high polyreactivity
QVQLVESGGGLDQAGGSLRLSCAAAGRTFPYYAMGWYRQAPGKERELVATISTSGTSTYYADSVKGRFTISRDKAKNTVYLQMNSLKPEDTAVYYCNAVHRNWRQKFDYWGLGTQVTVSS | high polyreactivity
QVQLVESGGGLDQAGGSLRLSCAASASTFRRYAMGWYRQAPGKERELVAAISRSGGNTYYADSVKGRFTISRDNAKNTVYLQMNSLKPEDTAVYYCAASKLYGSPEHGYWGQGTQVTVSS | high polyreactivity
QVQLVESGGGLDQAGGSLRLSCAASGFTFASYAMGWYRQAPGKERELLAAITRSGGSTYYADSVKGRFTISRDNAKNTVYLHLTSLKPEDTAVYYCATDDEQHYYLLEYYYWGQGTQVTVSS | low polyreactivity

Sequence | polyreactivity (PSR sort gate)
QVQLVESGGGLDQAGGSLRLSCAASGFTFTGYAMGWYRQAPGKERELVAAITRGGGSTYYADSVKGRFTISRDNAKNTVYLQMNSLKPEDTAVYYSAAQRSRLIRISSPYYGHDYWGQGTQVTVSS | low polyreactivity
QVQLVESGGGLDQAGGSLRLSCAASGFTLHSYALGWYRQAPGKERELVAAITTGGSTYYADSVKGRFTISRDNAKNTVYLQMNSLKPEDTAVYYCAAEDPGPYGGYVYWGQGTQVTVSS | low polyreactivity
QVQLVESGGGLDQAGGSLRLSCAASGIIFEQYAMGWYRQAPGKERELVAAISSGGTTYADSVKGRFTISRDNAKNTVYLQMNSLKPEYTAVYYCNDDLSWHGPDWSDYEYDYWGQGTQVTVSS | low polyreactivity
QVQLVESGGGLDQAGGSLRLSCAASGIILYGYTMGGYRQAPGKERELVAAINRGGSTNYADSVKGRFTISRDNAKNTVYLQMNSLKPEDTAVYYCAVDTVVASTYDYWGQGTQVTVSS | low polyreactivity
QVQLVESGGGLDQAGGSLRLSCAASGIILYRNGMGCYRQAPGKETELVAVISRRGGTYYADSVKGRFTISRDNAKNTVYLQVNSLKPEDTAVYYCAAYLSQKGNFRGGGDYWGQGTQVTVSS | high polyreactivity
QVQLVESGGGLDQAGGSLRLSCAASGITFQGYAMGWYRQAPGKERELVAAINDSGSSTYYADSVKGRFTISRDNAKNTVYLQMNSLKPEDTAVYYCAAYLWFWGQGTQVTVSS | low polyreactivity
QVQLVESGGGLDQAGGSLRLSCAASGITFTVNARGWYREAPGKERELVAGITWSGGSTYYADSVKGRFTISRDNAKNTVYLQMNSLKPEDTAVYYCNADSDGFWSIYDYWGQGTQVTVSS | low polyreactivity
QVQLVESGGGLDQAGGSLRLSCAASGLTFKWYAMGWYRQAPGKERELVAAIRTSAGSTYYADSVKGRFTISRDNAKNTVYLQMNSLKPEDTAVYYCNAVGYVFRYVYQYDYWGQCTQVTVSS | low polyreactivity
QVQLVESGGGLDQAGGSLRLSCAASGLTFYKYAMGWYRQAPRKERELVASISRTGGSTYYADSVKGRFTISRDNANNTVYLQMNSLKPEDTAFYYCAARRGYYYGRVGYWGQGTQVTVSS | high polyreactivity
QVQLVESGGGLDQAGGSLRLSCAASGNTFIRNALGWYRQAPGIERELVAAITSGTSTYYADSVKGRFTISRDNAQKTVYLQMNSLKPEDTALYYCAKRRNYWHYYWGQGTQVTVSS | high polyreactivity
QVQLVESGGGLDQAGGSLRLSCAASGRIFTANVMGWYRQAPGKERELVAAIDYSGGSTYYADSVKGRFTISRDNAKNTVYLQMNSLKPEDTAVYSCNRDDYADYYHLEYDYWGQGTQVTVSS | low polyreactivity
QVQLVESGGGLDQAGGSLRLSCAASGRIFTTYAMGWYRQAPGKERELVAAISRSGGSTYYADSVKGRFTISRDNAKNTVYLQMNSLKPEDTAVYYCAAVPTSNSFRSSFYYWGQGTQVTVSS | high polyreactivity
QVQLVESGGGLDQAGGSLRLSCAASGRIFTYNTMGWYRQAPGKEREFVASITYSGSSTYYADSVKGRFTISRDNAKNTVYLEMNSLKPEVTAVYYCAHRYGYSDGDYWGQGTQVTVSS | low polyreactivity
QVQLVESGGGLDQAGGSLRLSCAASGRIFYYYALGWYRQAPGKERELVAAITWIGTSTYYADSVKGRFTISRDNGKNTVYLQMNSLKPEDTAVYYCAAEGWVGAWWYVLDVRYDYWGQGTQVTVSS | low polyreactivity
QVQLVESGGGLDQAGGSLRLSCAASGRIGYYAMGWYRQAPGKETELVAAISYGGGSTYYADSVKGRFTISRDNAKNTVYLQLNSLKPEDTAVYYCAARWGKSWRGYGYWGQGTLVTVSS | high polyreactivity
QVQLVESGGGLDQAGGSLRLSCAASGRTFEYNAMGLYRQAPGKERELVATIRYSGTSTYADSVKGRFTISRDNAKNTAYLQMNSLKPEDTAVYYCNKLGYYYDRRYDYWGQGTQVTVSS | high polyreactivity
